Assay results taken from patent US20160068595A1 (DEVELOPMEN CENTER FOR BIOTECHNOLOGY, published 2016).
Changes are numbered by the printed parent chain.

T1: human IL-20 (interleukin-20), recombinant (human, UniProt Q9NYY1 25-176)
T1 construct: Analyte in the BIAcore assay and stimulus (300 pM) in the BaF3 proliferation assay; also called hIL-20; human cytokine IL20
T1 sequence (looked up): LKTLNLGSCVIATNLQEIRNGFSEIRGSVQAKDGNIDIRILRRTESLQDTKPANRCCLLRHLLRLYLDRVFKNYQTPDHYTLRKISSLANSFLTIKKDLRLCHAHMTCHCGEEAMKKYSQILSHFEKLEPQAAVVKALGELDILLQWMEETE

B1: mouse anti-IL-20 monoclonal antibody 7E (antibody, V domains shown)
VH: ELKLEESGGGLVQPGGSMKLSCAASGFTFSDAWMDWVRQSPEKGLEWIAEIRSKANNYATYFAESVKGRFTISRDDSKSGVYLQMNNLRAEDTGIYFCTKLSLRYWFFDVWGAGTTVTVSS
VL: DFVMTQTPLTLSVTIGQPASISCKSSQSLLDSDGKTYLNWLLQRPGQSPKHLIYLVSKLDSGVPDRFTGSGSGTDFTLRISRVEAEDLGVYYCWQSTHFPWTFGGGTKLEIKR
notes: Mouse monoclonal antibody; The BIAcore method captures antibody on anti-human IgG; also called mAb 7E; mAb E7
B2: FLB35 (HH12 variant) (antibody, V domains shown)
VH: EVQLQESGGGLVQPGGSLRLSCAASGFTFSDAWMDWVRQAPGKGLEWVGEIRSKANNYATYFAESVKGRFTISRDDSKNSLYLQMNSLKTEDTGVYYCTKLDLRYWFFDVWGQGTLVTVSS
VL: DIQMTQSPLSLSVTPGQPASISCKSSQSLLDYDGKTYLNWYQQKPGQSPQLLIYLVSKLDSGVPDRFSGSGSGTDFTLKISRVEAEDVGVYYCWQSTLFPWTFGQGTKVEIKR
B3: FLB67 (HH12 variant) (antibody, V domains shown)
VH: B2 VH with D102S, R104Q
VL: B2 VL with L55Q, L98H
B4: FLB35(S) (FLB35 with Ser at CDRL1 position 27E) (antibody, V domains shown)
VH: B2 VH
VL: B2 VL with Y32S

Tests used:
[1] = target: T1, human IL-20 (interleukin-20), …; test: SPR, BIAcore T100; antibody captured on anti-human IgG CM5 chip, IL-20 as analyte, 1:1 model
Method: The human IL-20-binding kinetics of each purified anti-IL-20 antibody was estimated by surface plasmon resonance measurements using the BIAcore T100 biosensor system. The anti-IL-20 Ab was captured on an anti-human IgG immobilized CM5 sensor chip. The immobilized level of anti-human IgG was about 9,000-10,000 RU and the capture level of anti-IL-20 antibody was about 350-400 RU. Binding was carried out at constant flow rates of 30 μL/min of IL-20 at various dilutions in HEPES buffered saline (BIA certified) for 60 seconds. Dissociations were carried out by passing through HEPES buffer for 480 seconds. Regeneration of the surface was carried out by […] 10 mM Glycine pH 2.0/1.5 (50:50) for 40 seconds.
The IL-20 affinity of each of the anti-IL-20 antibodies were calculated from an affinity binding curve fit using the predefined model (1:1 binding) provided by Biacore T100 evaluation software 2.0.

[2] = target: T1, human IL-20 (interleukin-20), …; test: binding kinetics of CDR mutants; method not named

Binder | Kd [1] [nM] | koff [1] [s⁻¹] | kon [1] [M⁻¹ s⁻¹] | Kd [2] [nM] | koff [2] [s⁻¹] | kon [2] [M⁻¹ s⁻¹]
B1 | 0.781 | 0.000711 | 911000 | – | – | –
B2 | – | – | – | 0.437 | 0.000431 | 988000
B3 | – | – | – | 0.803 | 0.000713 | 888000
B4 | – | – | – | 4.03 | 0.00283 | 703000
